How the values were obtained:
Assay in all cases: purified protein
[1] = substrate: CN1c2c(nc(N)[nH]c2=O)NC[C@@H]1CNc1ccc(C(=O)N[C@@H](CCC(=O)O)C(=O)O)cc1; settings: 100 µM homocysteine, SAM, aquacobalamin, DTT, pH 7.2, 50 °C, holo-tMS (MeCbl), pH 7.2
[2] = substrate: C[S+](CC[C@H](N)C(=O)O)C[C@H]1O[C@@H](n2cnc3c(N)ncnc32)[C@H](O)[C@@H]1O; settings: 1.25 mM DL-homocysteine, 104 µM (6S)-methyltetrahydrofolate, 50 °C, holo-tMS, reactivation (reductive methylation of cob(II)alamin)
[3] = substrate: NC(CCS)C(=O)O; assay type: biochemical, Thermus thermophilus; settings: 250 µM CH3-H4folate, SAM, aquacobalamin, DTT, pH 7.2, 50 °C, holo-tMS, DL-homocysteine varied

B1: tMS (full-length cobalamin-dependent methionine synthase) (Thermus thermophilus HB8) (protein)
chain: MVEVHACSPGCRHHLGGAGWGDAPLVRLGYNKEARAKKFPYLKALLERPLVFDGAMGTELQKRDLTPEDYGGEAYFGCPEVLNRTRPEVVREIHLAYLEAGAEVIETNTFGALRHVLAEYGLEEAAEELAFLGARIAREAADPHGAFVAGALGPGTKLVSLGQISWDALYRAYKEAARGLLKGGVDLILLETAQDILQVRCAVLAVREAMAEVGREVPLQVQVTFEATGTMLVGTDEQAALAALESLPVDVVGMNCATGPDLMDSKVRYFAEHSTRFVSCLPNAGLPRNEGGRVVYDLTPEELAKWHLKFVAEYGVNAVGGCCGTGPEHIRKVAEAVKGLAPKPRPESFPPQVASLYQAVSLKQEASLFLVGERLNATGSKRFREMLFARDLEGILALAREQVEEGAHALDLSVAWTGRDELEDLRWLLPHLATALTVPVMVDSTSPEAMELALKYLPGRVLLNSANLEDGLERFDRVASLAKAHGAALVVLAIDEKGMAKTREEKVRVALRMYERLTEHHGLRPEDLLFDLLTFPITQGDEESRPLAKETLLAMEELRERLPGVGFVLGVSNVSFGLKPRARRVLNSVFLDEARKRGLTAAIVDAGKILPISQIPEEAYALALDLIYDRRKEGFDPLLAFMAYFEAHKEDPGKREDAFLALPLLERLKRRVVEGRKQGLEADLEEALKAGHKPLDLINGPLLAGMKEVGDLFGAGKMQLPFVLQAAEVMKRAVAYLEPHMEKKGEGKGTLVLATVKGDVHDIGKNLVDIILSNNGYRVVNLGIKVPIEEILKAVEAHKPHAVGMSGLLVKSTLVMKENLEYMRDRGYTLPVILGGAALTRSYVEELRAIYPNVYYAEDAFEGLRLMEELTGHAPPELTRKAPARPKREAPKVAPRARPVGEAPAVPRPPFFGVRVEEGLDLATIAHYVNKLALYRGQWGYSRKGLSREAWQALVEREAEPVFQRLLKEAMAEGWLEPKVLYGFFPVAREGEELLVFSPETGEVLERFRFPRQKGGGLSLVDYFRPRFAAPLGDEADWMPKEAFRAGARDVLGVQLVTMGEAPSRKAQALFASGAYQDYLFVHGFSVEMTEALAEYWHKRMRQMWGIAHQDATEIQKLFQQGYQGARYSFGYPACPDLADQAKLDRLMGFHRVGVRLTENFQLEPEHATSALVVHHPEARYFSVD
notes: full-length wild type, five modules Hcy:Fol:Cap:Cob:Act, N-terminal His tag with TEV site (cut), E. coli BL21star(DE3); holoenzyme reconstituted with MeCbl; 132 kDa
Km [1]: 18 ± 4.1 µM
Km [2]: 1.0 ± 0.1 µM
Km [3]: 9.3 ± 3.1 µM
